Experimental data: patent US20150165065A1 (AVIDBIOTICS, published 2015)
Substitutions are numbered along the chain they refer to.

B1: soluble MICA generated from pKK45 (loop 1 insert extended 3.3sp) (designed binder)
chain: HHHHHHEPHSLRYNLTVLSWDGSVQSGFLTEVHLDGQPFLRCDRQKCRAKPQGQWAEDVLGNKTWDRETRDLTGNGKDLRMTLAHIKDQKEGLHSLQEIRVCEIHEDNSTRSSQHFYYDGELFLSQNLETEEWTMPQSSRAQTLAMNVRNFLKEDAMKTKTHYHAMHADCLQELRRYLKSGVVLRRTVPPMVNVTSGGSGGGSRVPRGDSDLTSGGSGGGVTCRASGFYPWNITLSWRQDGVSLSHDTQQWGDVLPDGNGTYQTWVATRICQGEEQRFTCYMEHSGNHSTHPVPSGK
notes: From pKK34 (His6, Glu125); secreted by 293T cells; also called 1-3.3sp
B2: soluble MICA generated from pKK47 (loop 1 insert extended 5.3sp) (designed binder)
chain: B1 chain with R204H, V205L, P206A, S210D, D211L, L212T, T213Y
notes: From pKK34 (His6, Glu125); secreted by 293T cells; also called 1-5.3sp
B3: soluble MICA generated from pKK52 (tight loop 1 insert T-3.1) (designed binder)
chain: HHHHHHEPHSLRYNLTVLSWDGSVQSGFLTEVHLDGQPFLRCDRQKCRAKPQGQWAEDVLGNKTWDRETRDLTGNGKDLRMTLAHIKDQKEGLHSLQEIRVCEIHEDNSTRSSQHFYYDGELFLSQNLETEEWTMPQSSRAQTLAMNVRNFLKEDAMKTKTHYHAMHADCLQELRRYLKSGVVLRRTVPPMVNTSRGDHPRTQCRASGFYPWNITLSWRQDGVSLSHDTQQWGDVLPDGNGTYQTWVATRICQGEEQRFTCYMEHSGNHSTHPVPSGK
notes: From pSW324 (from pKK34: His6, Glu125); secreted by 293T cells; also called 1-T-3.1
B4: soluble MICA generated from pKK53 (tight loop 1 insert T-3.5) (designed binder)
chain: B3 chain with T194G, H199S, P200L, R201I, T202M, Q203H
notes: From pSW324 (from pKK34: His6, Glu125); secreted by 293T cells; also called 1-T-3.5
B5: soluble MICA generated from pKK56 (tight loop 1 insert T-5.3) (designed binder)
chain: B3 chain with T194H, S195L, R196A, G197R, D198G, H199D, P200D, R201L, Q203Y
notes: From pSW324 (from pKK34: His6, Glu125); secreted by 293T cells; also called 1-T-5.3
B6: soluble MICA generated from pKK54 (tight loop 1 insert T-3.3) (designed binder)
chain: B3 chain with T194R, S195V, R196P, G197R, D198G, H199D, P200S, R201D, T202L, Q203T
notes: From pSW324 (from pKK34: His6, Glu125); secreted by 293T cells; also called 1-T-3.3
B7: soluble MICA generated from pKK55 (tight loop 1 insert T-5.1) (designed binder)
chain: B3 chain with T194V, S195T, H199T, P200F, R201T, T202Q, Q203S
notes: From pSW324 (from pKK34: His6, Glu125); secreted by 293T cells; also called 1-T-5.1
B8: M13 phage pKK92 displaying MICA α3 domain with loop 1 insert 3.1 (designed binder)
chain: TVPPMVNVTSRGDHPRTQVTCRASGFYPWNITLSWRQDGVSLSHDTQQWGDVLPDGNGTYQTWVATRICQGEEQRFTCYMEHSGNHSTHPVPSGK
notes: also called 1-3.1; not shown: C-terminal portion of M13 gene III protein, fused at codon position 198
B9: M13 phage pKK104 displaying MICA α3 domain with loop 3 insert 3.2sp (designed binder)
chain: TVPPMVNVTRSEASEGNITVTCRASGFYPWNITLSWRQDGVSLSHDTQQWGDVLPDGNGTYQTWVATRISGGSGGGSTSRGDHPRTQSGGSGGGCYMEHSGNHSTHPVPSGK
notes: also called 3-3.2sp; not shown: C-terminal portion of M13 gene III protein, fused at codon position 198
B10: M13 phage pKK105 displaying MICA α3 domain with loop 3 insert 3.3sp (designed binder)
chain: B9 chain with T78R, S79V, R80P, G81R, D82G, H83D, P84S, R85D, T86L, Q87T
notes: also called 3-3.3sp; not shown: C-terminal portion of M13 gene III protein, fused at codon position 198
B11: M13 phage pKK94 displaying MICA α3 domain with loop 1 insert 3.3 (designed binder)
chain: TVPPMVNVTRVPRGDSDLTVTCRASGFYPWNITLSWRQDGVSLSHDTQQWGDVLPDGNGTYQTWVATRICQGEEQRFTCYMEHSGNHSTHPVPSGK
notes: also called 1-3.3; not shown: C-terminal portion of M13 gene III protein, fused at codon position 198
B12: M13 phage pKK98 displaying MICA α3 domain with loop 1 insert 5.3 (designed binder)
chain: B11 chain with R10H, V11L, P12A, S16D, D17L, L18T, T19Y
notes: also called 1-5.3; not shown: C-terminal portion of M13 gene III protein, fused at codon position 198

Molecular target: T1, integrin αVβ3 (UniProt P06756 31-992; P05106 27-718)
T1 construct: Coated on the ELISA plate
Assay: ELISA, coated integrin, anti-MICA-HRP
Procedure: (§1) The ability of the soluble MICA molecules in each of the concentrated supernatants to bind target molecules was assayed by an ELISA using the intended target proteins, integrin αVβ3 or αVβ5, as capture agents on the ELISA plate. After the respective integrins were adhered to the bottoms of the wells of the ELISA plate, the wells were washed and blocked, as well known in the field. Each sample (100 μl) of soluble MICA produced and secreted by 293T cells was added to wells containing αVβ3 or αVβ5, incubated and washed. The soluble MICA molecules captured by the integrins were detected by HRP-conjugated antibody to human MICA developed with Ultra TMB-ELISA substrate and the optical densities read. The quantity of soluble MICA in each sample was determined by the MICA-specific ELISA. […] The ELISA signal from a non-binding, negative control MICA (generated by pSW273) was subtracted from each integrin binding signal.

T1 sequence (P06756 31-992, chain 1 of 2): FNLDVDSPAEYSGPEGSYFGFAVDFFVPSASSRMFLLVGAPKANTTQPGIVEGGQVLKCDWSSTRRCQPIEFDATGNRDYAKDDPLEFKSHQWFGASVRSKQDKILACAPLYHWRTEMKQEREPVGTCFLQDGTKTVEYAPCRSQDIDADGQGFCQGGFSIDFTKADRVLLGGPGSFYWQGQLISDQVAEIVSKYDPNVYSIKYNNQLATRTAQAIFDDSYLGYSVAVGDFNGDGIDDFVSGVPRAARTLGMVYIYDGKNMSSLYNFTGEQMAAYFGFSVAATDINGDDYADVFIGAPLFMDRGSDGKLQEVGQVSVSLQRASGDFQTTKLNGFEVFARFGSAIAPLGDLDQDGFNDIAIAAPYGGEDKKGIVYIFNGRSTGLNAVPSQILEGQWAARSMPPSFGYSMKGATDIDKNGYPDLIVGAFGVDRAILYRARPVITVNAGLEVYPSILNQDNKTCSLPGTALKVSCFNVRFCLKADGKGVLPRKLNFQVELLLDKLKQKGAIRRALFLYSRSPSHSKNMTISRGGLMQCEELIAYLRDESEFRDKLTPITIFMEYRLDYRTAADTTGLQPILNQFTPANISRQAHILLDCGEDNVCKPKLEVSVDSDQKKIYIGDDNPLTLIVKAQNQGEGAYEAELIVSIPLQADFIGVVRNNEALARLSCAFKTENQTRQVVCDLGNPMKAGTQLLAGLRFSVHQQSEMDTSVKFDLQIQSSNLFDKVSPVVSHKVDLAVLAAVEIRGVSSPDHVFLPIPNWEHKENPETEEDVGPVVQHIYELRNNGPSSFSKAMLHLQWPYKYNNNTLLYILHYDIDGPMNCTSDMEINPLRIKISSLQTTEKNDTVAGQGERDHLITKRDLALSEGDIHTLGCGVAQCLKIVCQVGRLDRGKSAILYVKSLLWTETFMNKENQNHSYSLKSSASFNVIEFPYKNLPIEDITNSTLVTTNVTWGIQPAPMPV
T1 sequence (P05106 27-718, chain 2 of 2): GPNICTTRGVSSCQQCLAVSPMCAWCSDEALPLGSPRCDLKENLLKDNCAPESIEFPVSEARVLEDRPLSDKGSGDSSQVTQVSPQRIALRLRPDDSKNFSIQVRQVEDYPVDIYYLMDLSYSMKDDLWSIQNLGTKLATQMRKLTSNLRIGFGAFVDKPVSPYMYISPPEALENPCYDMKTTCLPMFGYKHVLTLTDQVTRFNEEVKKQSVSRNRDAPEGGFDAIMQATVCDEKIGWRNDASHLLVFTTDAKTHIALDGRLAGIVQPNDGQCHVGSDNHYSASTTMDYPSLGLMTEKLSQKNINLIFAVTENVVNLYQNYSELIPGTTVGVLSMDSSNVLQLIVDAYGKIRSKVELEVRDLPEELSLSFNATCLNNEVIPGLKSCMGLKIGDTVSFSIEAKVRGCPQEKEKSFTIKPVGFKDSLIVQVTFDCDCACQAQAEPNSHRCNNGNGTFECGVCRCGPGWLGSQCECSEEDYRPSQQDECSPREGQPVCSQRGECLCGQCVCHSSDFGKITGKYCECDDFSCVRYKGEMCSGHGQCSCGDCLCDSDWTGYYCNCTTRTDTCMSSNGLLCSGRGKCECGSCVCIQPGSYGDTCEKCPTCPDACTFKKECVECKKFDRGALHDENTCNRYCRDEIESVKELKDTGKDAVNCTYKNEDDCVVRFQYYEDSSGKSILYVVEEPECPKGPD

Binder | αvβ3 signal | αvβ3 signal/ng
B1 | 0.393 OD | 9.51 signal/ng MICA
B2 | 0.294 OD | 9.99 signal/ng MICA
B3 | 0.391 OD | 10.1 signal/ng MICA
B4 | 0.659 OD | 18.7 signal/ng MICA
B5 | 0.473 OD | 16.4 signal/ng MICA
B6 | 0.177 OD | 19.5 signal/ng MICA
B7 | 0.475 OD | 14 signal/ng MICA

Molecular target: T2, integrin αVβ5 (UniProt P06756 31-992; P18084 24-719)
T2 construct: Coated on the ELISA plate
Assay: ELISA, coated integrin, anti-MICA-HRP
Procedure: as §1

T2 sequence (P06756 31-992, chain 1 of 2): as the sequence (P06756 31-992, chain 1 of 2) above
T2 sequence (P18084 24-719, chain 2 of 2): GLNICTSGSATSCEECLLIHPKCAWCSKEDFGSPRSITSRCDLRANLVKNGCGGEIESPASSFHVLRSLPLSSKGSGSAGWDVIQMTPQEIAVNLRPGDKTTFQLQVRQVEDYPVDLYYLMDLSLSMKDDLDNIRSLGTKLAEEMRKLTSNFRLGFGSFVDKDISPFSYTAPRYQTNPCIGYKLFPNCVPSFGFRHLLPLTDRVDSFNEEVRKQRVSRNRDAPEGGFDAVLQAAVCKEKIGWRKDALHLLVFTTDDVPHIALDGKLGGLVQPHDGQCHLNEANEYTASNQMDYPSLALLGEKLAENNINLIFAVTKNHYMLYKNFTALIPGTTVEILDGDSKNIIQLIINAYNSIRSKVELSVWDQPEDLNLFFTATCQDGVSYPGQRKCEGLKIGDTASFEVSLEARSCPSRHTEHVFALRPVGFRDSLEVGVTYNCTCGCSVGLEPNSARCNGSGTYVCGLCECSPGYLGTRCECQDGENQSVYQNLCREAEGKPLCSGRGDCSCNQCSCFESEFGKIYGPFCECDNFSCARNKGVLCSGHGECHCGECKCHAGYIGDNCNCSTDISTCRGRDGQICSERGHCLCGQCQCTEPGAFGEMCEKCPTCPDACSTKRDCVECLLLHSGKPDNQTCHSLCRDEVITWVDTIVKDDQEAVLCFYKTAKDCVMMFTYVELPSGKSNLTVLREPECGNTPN

Binder | αvβ5 signal | αvβ5 signal/ng
B1 | 0.41 OD | 9.92 signal/ng MICA
B2 | 0.276 OD | 9.38 signal/ng MICA
B3 | 0.485 OD | 12.6 signal/ng MICA
B4 | 0.8 OD | 22.8 signal/ng MICA
B5 | 0.528 OD | 18.3 signal/ng MICA
B6 | 0.175 OD | 19.3 signal/ng MICA
B7 | 0.588 OD | 17.4 signal/ng MICA

Molecular target: T1, integrin αVβ3
Assay: phage ELISA, coated integrin, anti-M13-HRP
Procedure: (§2) The phage vectors were independently transformed into NEBαF′tet competent E. coli cells. Phages produced by the transformed cells were tittered and their concentrations adjusted by dilution to 10¹³ per ml. The ability of the soluble MICA molecules in each of the phage preparations was assayed by an ELISA using the intended target proteins, integrin αVβ3 or αVβ5, as capture agents on the ELISA plate. After the respective integrins were adhered to the bottoms of the wells of the ELISA plate, the wells were washed and blocked, as well known in the field. Each sample (100 μl) of phage preparation was added to wells containing αVβ3 or αVβ5, incubated and washed. The phages captured by the integrins were detected by HRP-conjugated antibody to the M13 phage coat developed with Ultra TMB-ELISA substrate and the optical densities read.

Binder | αvβ3 signal
B8 | 0.858 OD
B9 | 0.791 OD
B10 | 1.33 OD
B11 | 1.07 OD
B12 | 1.22 OD

Molecular target: T2, integrin αVβ5
Assay: phage ELISA, coated integrin, anti-M13-HRP
Procedure: as §2

Binder | αvβ5 signal
B8 | 1.32 OD
B9 | 1.12 OD
B10 | 1.11 OD
B11 | 2.84 OD
B12 | 1.48 OD
